Experimental data as given in publication PMC4176161 (Nucleic Acids Research, 2014).
Like-named read-outs stand apart in the source and are kept apart here.

What was measured:
[1] = target: the molecule itself; assay: native gel or EMSA
[2] = target: the molecule itself; assay: native gel or EMSA; remark: listed apart in the source

| Protein | stoichiometry N [1] | stoichiometry N [2] |
| --- | --- | --- |
| …1 (SEP1) (natural protein) MGRGRVELKRIENKINRQVTFAKRRNGLLKKAYELSVLCDAEVALIIFSNRGKLYEFCSSSNMLKTLDRYQKCSYGSIEVNNKPAKELENSYREYLKLKGRYENLQRQQRNLLGEDLGPLNSKELEQLERQLDGSLKQVRSIKTQYMLDQLSDLQNKEQMLLETNRALAMKLDDMIGVRSHHMGGGGGWEGGEQNVTYAHHQAQSQGLYQPLECNPTLQMGYDNPVCSEQITATTQAQAQQGNGYIPGWML | 2 | 4 |
| …2 (SEP2) (natural protein) not shown | 2 | 4 |
| …4 (SEP4) (natural protein) MGRGKVELKRIENKINRQVTFAKRRNGLLKKAYELSVLCDAEIALLIFSNRGKLYEFCSSPSGMARTVDKYRKHSYATMDPNQSAKDLQDKYQDYLKLKSRVEILQHSQRHLLGEELSEMDVNELEHLERQVDASLRQIRSTKARSMLDQLSDLKTKEEMLLETNRDLRRKLEDSDAALTQSFWGSSAAEQQQQHQQQQQGMSSYQSNPPIQEAGFFKPLQGNVALQMSSHYNHNPANATNSATTSQNVNGFFPGWMV | 2 | 4 |
